In PMC10329638:

Biological target: rat ASIC3 wild type (rat) (UniProt O35240)
UniProt O35240, sequence (O35240 whole entry): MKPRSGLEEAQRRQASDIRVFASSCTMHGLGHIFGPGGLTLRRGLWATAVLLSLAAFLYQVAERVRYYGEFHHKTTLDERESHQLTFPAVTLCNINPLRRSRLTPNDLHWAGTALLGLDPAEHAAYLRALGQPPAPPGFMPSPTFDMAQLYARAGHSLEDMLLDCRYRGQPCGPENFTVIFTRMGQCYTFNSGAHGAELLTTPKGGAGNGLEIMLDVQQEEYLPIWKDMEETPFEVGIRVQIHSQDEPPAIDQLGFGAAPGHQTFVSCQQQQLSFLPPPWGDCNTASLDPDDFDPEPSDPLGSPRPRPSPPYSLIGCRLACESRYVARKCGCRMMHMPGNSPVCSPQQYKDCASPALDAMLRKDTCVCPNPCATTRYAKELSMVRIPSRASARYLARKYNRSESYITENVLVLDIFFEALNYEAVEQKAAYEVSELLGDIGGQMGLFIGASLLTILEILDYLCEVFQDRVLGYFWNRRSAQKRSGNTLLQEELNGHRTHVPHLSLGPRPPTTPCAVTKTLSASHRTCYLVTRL

Q: Which proton-gated currents of Xenopus oocytes co-expressing wild-type ASIC3 and mutant ASIC2a (two-electrode voltage clamp, pH 7.0 to 3) does the source give for “rat ASIC2a-H72N (from UniProt Q62962-1 1-512) (natural protein)” here?
A: > 1 µA
